Test results as given in patent US20060029546A1 (DECODE GENETICS, published 2006).

What was measured:
[1] = target: T1, ErbB4 K751A bait (cytoplasmic domain, mutation in the ATP binding site) (human, UniProt Q15303 676-1308); test: yeast two-hybrid growth assay
T1 construct: not shown: fusion partner encoded by the bait vector
From the text: (§1) To characterize components of the NRG1 signaling pathway downstream of the ErbB4 receptor tyrosine kinase, the predominant neuronal receptor for NRG1, the cytoplasmic domain of ErbB4 was used as a bait in a yeast two-hybrid interaction screen. The ErbB4 bait was created by cloning the entire cytoplasmic domain into the vector pGBKT7 (Clontech, Palo Alto, Calif.) using homologous recombination in the yeast strain AH109 (Clontech, Palo Alto, Calif.). Liner vector and the cytoplasmic fragment of ErbB4 were transfected into the yeast strain using the lithium acetate (LiAc) method and plated onto […] negative selection media plates. Plasmid DNA was isolated from positive colonies and the presence of ErbB4 was verified by sequencing.
(§2) The ErbB4 bait was capable of tyrosine auto-phosphorylation in yeast cells. Tyrosine phosphorylation was absent from ErbB4 baits which contained mutations in the ATP binding site (K751A) or the catalytic site (D843A). Homo sapiens random prime hippocampus cDNA library was created using the ZAP-cDNA Gigapack III Gold Cloning Kit (Stratagene) and transformed into yeast using Li Acetate. Screening of a human hippocampus cDNA library yielded a partial cDNA clone comprising the SH2 and SH3 domains of Fyn (amino acids 60-252 of SEQ ID NO: 3). SH2 domains are protein modules able to bind phosphorylated tyrosine residues. […]

[2] = target: T2, ErbB4 D843A bait (cytoplasmic domain, mutation in the catalytic site) (human, UniProt Q15303 676-1308); test: yeast two-hybrid growth assay
T2 construct: not shown: fusion partner encoded by the bait vector
From the text: as §1, §2

B1: partial cDNA clone comprising the SH2 and SH3 domains of Fyn (amino acids 60-252) (enzyme)
chain: not shown
notes: The clone came from a human hippocampus cDNA library; also called Fyn clone; p59Fyn; not shown: fusion partner of the yeast two-hybrid library (prey) vector
binding result [1]: no binding | binding result [2]: no binding
